According to IntAct's records for PubMed 29778605:

B1: Vacuolar protein sorting-associated protein 33B (Homo sapiens), Q9H267 (parent)
chain: MAFPHRPDAPELPDFSMLKRLARDQLIYLLEQLPGKKDLFIEADLMSPLDRIANVSILKQHEVDKLYKVENKPALSSNEQLCFLVRPRIKNMRYIASLVNADKLAGRTRKYKVIFSPQKFYACEMVLEEEGIYGDVSCDEWAFSLLPLDVDLLSMELPEFFRDYFLEGDQRWINTVAQALHLLSTLYGPFPNCYGIGRCAKMAYELWRNLEEEEDGETKGRRPEIGHIFLLDRDVDFVTALCSQVVYEGLVDDTFRIKCGSVDFGPEVTSSDKSLKVLLNAEDKVFNEIRNEHFSNVFGFLSQKARNLQAQYDRRRGMDIKQMKNFVSQELKGLKQEHRLLSLHIGACESIMKKKTKQDFQELIKTEHALLEGFNIRESTSYIEEHIDRQVSPIESLRLMCLLSITENGLIPKDYRSLKTQYLQSYGPEHLLTFSNLRRAGLLTEQAPGDTLTAVESKVSKLVTDKAAGKITDAFSSLAKRSNFRAISKKLNLIPRVDGEYDLKVPRDMAYVFGGAYVPLSCRIIEQVLERRSWQGLDEVVRLLNCSDFAFTDMTKEDKASSESLRLILVVFLGGCTFSEISALRFLGREKGYRFIFLTTAVTNSARLMEAMSEVKA
partner: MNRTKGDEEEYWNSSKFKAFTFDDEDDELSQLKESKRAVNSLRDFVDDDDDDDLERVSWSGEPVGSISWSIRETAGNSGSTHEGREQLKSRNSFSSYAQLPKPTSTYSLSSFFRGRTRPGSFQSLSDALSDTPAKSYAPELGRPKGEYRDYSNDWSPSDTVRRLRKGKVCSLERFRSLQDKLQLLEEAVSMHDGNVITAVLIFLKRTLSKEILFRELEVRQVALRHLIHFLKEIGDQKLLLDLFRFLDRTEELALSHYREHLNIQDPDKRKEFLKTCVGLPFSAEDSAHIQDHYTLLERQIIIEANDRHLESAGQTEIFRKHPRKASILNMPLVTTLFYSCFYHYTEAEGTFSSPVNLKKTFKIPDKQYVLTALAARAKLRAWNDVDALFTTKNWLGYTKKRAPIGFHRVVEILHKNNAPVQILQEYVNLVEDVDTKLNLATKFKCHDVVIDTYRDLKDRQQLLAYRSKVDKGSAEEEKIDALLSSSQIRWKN
B2: Vacuolar protein sorting-associated protein 33A (Homo sapiens), Q96AX1 (parent)
chain: MAAHLSYGRVNLNVLREAVRRELREFLDKCAGSKAIVWDEYLTGPFGLIAQYSLLKEHEVEKMFTLKGNRLPAADVKNIIFFVRPRLELMDIIAENVLSEDRRGPTRDFHILFVPRRSLLCEQRLKDLGVLGSFIHREEYSLDLIPFDGDLLSMESEGAFKECYLEGDQTSLYHAAKGLMTLQALYGTIPQIFGKGECARQVANMMIRMKREFTGSQNSIFPVFDNLLLLDRNVDLLTPLATQLTYEGLIDEIYGIQNSYVKLPPEKFAPKKQGDGGKDLPTEAKKLQLNSAEELYAEIRDKNFNAVGSVLSKKAKIISAAFEERHNAKTVGEIKQFVSQLPHMQAARGSLANHTSIAELIKDVTTSEDFFDKLTVEQEFMSGIDTDKVNNYIEDCIAQKHSLIKVLRLVCLQSVCNSGLKQKVLDYYKREILQTYGYEHILTLHNLEKAGLLKPQTGGRNNYPTIRKTLRLWMDDVNEQNPTDISYVYSGYAPLSVRLAQLLSRPGWRSIEEVLRILPGPHFEERQPLPTGLQKKRQPGENRVTLIFFLGGVTFAEIAALRFLSQLEDGGTEYVIATTKLMNGTSWIEALMEKPF
partner: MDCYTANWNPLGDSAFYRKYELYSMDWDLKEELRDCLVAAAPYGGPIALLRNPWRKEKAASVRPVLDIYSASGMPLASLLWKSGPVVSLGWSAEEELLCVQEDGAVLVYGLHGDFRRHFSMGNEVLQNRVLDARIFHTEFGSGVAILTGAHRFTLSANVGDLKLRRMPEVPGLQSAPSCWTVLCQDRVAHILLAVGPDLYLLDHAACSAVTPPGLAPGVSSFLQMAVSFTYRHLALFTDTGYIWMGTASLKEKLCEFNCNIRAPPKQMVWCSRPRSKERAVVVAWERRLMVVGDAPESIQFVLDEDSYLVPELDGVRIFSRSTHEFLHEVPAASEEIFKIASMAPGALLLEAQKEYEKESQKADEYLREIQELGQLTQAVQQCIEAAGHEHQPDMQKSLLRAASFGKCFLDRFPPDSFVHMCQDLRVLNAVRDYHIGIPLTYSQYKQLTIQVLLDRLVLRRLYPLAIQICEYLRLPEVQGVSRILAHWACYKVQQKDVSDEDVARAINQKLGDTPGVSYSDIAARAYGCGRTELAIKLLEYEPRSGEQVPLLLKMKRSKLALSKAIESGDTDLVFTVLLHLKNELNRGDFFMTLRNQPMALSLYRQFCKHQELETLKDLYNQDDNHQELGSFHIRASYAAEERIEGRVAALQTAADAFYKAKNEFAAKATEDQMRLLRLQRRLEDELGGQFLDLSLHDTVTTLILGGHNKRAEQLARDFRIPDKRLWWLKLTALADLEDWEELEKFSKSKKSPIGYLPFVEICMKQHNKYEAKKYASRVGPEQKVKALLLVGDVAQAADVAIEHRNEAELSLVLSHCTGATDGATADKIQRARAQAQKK

Variants of: B1
Details: with spe39_human VIPAS39, Q9H9C1

Row | effect of a mutation on the interaction | Variant
1 | disrupting interaction strength | K419D;L431K
2 | decreasing interaction strength | P428D;L431K

Variants of: B2
Details: with vps16_human VPS16, Q9H269

Row | effect of a mutation on the interaction | Variant
3 | disrupting interaction strength | MAAHLSYGRVNLNVLREAVRRELREFLDKCAGSKAIVWDEYLTGPFGLIAQYSLLKEHEVEKMFTLKGNRLPAADVKNIIFFVRPRLELMDIIAENVLSEDRRGPTRDFHILFVPRRSLLCEQRLKDLGVLGSFIHREEYSLDLIPFDGDLLSMESEGAFKECYLEGDQTSLYHAAKGLMTLQALYGTIPQIFGKGECARQVANMMIRMKREFTGSQNSIFPVFDNLLLLDRNVDLLTPLATQLTYEGLIDEIYGIQNSYVKLPPEKFAPKKQGDGGKDLPTEAKKLQLNSAEELYAEIRDKNFNAVGSVLSKKAKIISAAFEERHNAKTVGEIKQFVSQLPHMQAARGSLANHTSIAELIKDVTTSEDFFDKLTVEQEFMSGIDTDKVNNYIEDCIAQKHSLIKVLRLVCLQSVCNSGLKQKVLDYYKREILQTYGDEHKLTLHNLEKAGLLKPQTGGRNNYPTIRKTLRLWMDDVNEQNPTDISYVYSGYAPLSVRLAQLLSRPGWRSIEEVLRILPGPHFEERQPLPTGLQKKRQPGENRVTLIFFLGGVTFAEIAALRFLSQLEDGGTEYVIATTKLMNGTSWIEALMEKPF [Y438D;I441K]
